Data published in patent US20240238380A1 (YUHAN, published 2024).

Biological target: GFRAL/RET overexpressed on HEK293 cells (GFRAL/RET/SRE-luc-overexpressing HEK293 cell line) (UniProt Q6UXV0 19-394; P07949 29-1114, limits assumed)
Assay: cell-based or functional assay

GFRAL/RET overexpressed on HEK293 cells (GFRAL/RET/SRE-luc-overexpressing HEK293 cell line), sequence (Q6UXV0 19-394 limits assumed, chain 1 of 2): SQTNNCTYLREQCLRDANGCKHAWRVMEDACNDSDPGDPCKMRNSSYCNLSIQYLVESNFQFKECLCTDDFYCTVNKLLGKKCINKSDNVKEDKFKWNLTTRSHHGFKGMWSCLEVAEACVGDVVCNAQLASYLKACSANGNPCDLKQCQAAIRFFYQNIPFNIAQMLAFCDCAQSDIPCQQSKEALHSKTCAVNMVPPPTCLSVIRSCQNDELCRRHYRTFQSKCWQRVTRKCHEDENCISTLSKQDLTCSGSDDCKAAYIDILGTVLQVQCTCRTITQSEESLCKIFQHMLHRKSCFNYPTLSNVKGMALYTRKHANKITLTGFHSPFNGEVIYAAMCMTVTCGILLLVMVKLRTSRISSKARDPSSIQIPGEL
GFRAL/RET overexpressed on HEK293 cells (GFRAL/RET/SRE-luc-overexpressing HEK293 cell line), sequence (P07949 29-1114 limits assumed, chain 2 of 2): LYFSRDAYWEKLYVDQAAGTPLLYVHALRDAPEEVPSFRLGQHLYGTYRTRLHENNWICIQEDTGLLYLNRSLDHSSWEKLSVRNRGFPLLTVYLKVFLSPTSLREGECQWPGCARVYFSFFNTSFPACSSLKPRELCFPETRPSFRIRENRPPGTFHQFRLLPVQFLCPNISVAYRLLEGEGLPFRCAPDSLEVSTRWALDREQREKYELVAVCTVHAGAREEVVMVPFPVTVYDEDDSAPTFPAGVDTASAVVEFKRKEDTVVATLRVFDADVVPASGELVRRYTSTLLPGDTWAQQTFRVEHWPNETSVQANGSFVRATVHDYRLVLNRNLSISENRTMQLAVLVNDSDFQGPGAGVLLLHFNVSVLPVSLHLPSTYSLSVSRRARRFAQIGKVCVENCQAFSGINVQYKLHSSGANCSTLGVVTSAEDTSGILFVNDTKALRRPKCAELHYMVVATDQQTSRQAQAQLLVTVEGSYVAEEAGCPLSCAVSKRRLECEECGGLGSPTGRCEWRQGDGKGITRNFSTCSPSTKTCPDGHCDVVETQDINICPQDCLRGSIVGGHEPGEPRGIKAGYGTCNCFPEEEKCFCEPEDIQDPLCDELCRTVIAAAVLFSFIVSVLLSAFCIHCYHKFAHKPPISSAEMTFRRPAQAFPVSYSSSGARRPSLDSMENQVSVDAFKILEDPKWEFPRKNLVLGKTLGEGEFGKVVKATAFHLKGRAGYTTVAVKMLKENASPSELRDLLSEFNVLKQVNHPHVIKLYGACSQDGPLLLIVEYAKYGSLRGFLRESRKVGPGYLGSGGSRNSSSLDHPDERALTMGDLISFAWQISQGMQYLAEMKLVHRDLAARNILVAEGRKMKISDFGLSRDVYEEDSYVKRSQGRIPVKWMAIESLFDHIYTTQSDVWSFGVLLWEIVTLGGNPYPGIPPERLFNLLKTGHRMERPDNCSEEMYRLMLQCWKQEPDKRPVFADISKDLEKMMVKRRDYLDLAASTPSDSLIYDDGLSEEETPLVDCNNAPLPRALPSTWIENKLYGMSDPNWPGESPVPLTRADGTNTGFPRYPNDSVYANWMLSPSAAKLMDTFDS

B1: FM9-2 + Fc_hole long-acting GDF15 fusion protein (dimer) (Fc fusion)
chain 1: APEAAGGPSVFLFPPKPKDTLMISRTPEVTCVVVDVSHEDPEVKFNWYVDGVEVHNAKTKPREEQYASTYRVVSVLTVLHQDWLNGKEYKCKVSNKALPAPIEKTISKAKGQPREPQVYTLPPSREEMTKNQVSLWCLVKGFYPSDIAVEWESNGQPENNYKTTPPVLDSDGSFFLYSKLTVDKSRWQQGNVFSCSVMHEALHNHYTQKSLSLSPGKGSGGGGSGGGGSGGGGSGGGGSGGGGSNGDHCPLGPGRCCRLHTVRASLEDLGWADWVLSPREVQVTMCIGACPSQFRAANMHAQIKTRLHRLKPDTVPAPCCVPASYNPMVLIQKTDTGVSLQTYDDLLAKDCHCI
chain 2: APEAAGGPSVFLFPPKPKDTLMISRTPEVTCVVVDVSHEDPEVKFNWYVDGVEVHNAKTKPREEQYASTYRVVSVLTVLHQDWLNGKEYKCKVSNKALPAPIEKTISKAKGQPREPQVYTLPPSREEMTKNQVSLSCAVKGFYPSDIAVEWESNGQPENNYKTTPPVLDSDGSFFLVSKLTVDKSRWQQGNVFSCSVMHEALHNHYTQKSLSLSPGK
  EC50 (nM), SRE-luciferase reporter (RLU): 9.5 nM
  Emax (%), SRE-luciferase reporter (RLU), relative to FM9-6+Fc_hole: 111%

B2: FM9-4 + Fc_hole long-acting GDF15 fusion protein (dimer) (Fc fusion)
chain 1: APEAAGGPSVFLFPPKPKDTLMISRTPEVTCVVVDVSHEDPEVKFNWYVDGVEVHNAKTKPREEQYASTYRVVSVLTVLHQDWLNGKEYKCKVSNKALPAPIEKTISKAKGQPREPQVYTLPPSREEMTKNQVSLWCLVKGFYPSDIAVEWESNGQPENNYKTTPPVLDSDGSFFLYSKLTVDKSRWQQGNVFSCSVMHEALHNHYTQKSLSLSPGKGSEEEAEEEAEEEAEEEAEEEAEEEANGDHCPLGPGRCCRLHTVRASLEDLGWADWVLSPREVQVTMCIGACPSQFRAANMHAQIKTRLHRLKPDTVPAPCCVPASYNPMVLIQKTDTGVSLQTYDDLLAKDCHCI
chain 2: B1 chain 2
  EC50 (nM), SRE-luciferase reporter (RLU): 23.6 nM
  Emax (%), SRE-luciferase reporter (RLU), relative to FM9-6+Fc_hole: 128%

B3: FM9-3 + Fc_hole long-acting GDF15 fusion protein (dimer) (Fc fusion)
chain 1: APEAAGGPSVFLFPPKPKDTLMISRTPEVTCVVVDVSHEDPEVKFNWYVDGVEVHNAKTKPREEQYASTYRVVSVLTVLHQDWLNGKEYKCKVSNKALPAPIEKTISKAKGQPREPQVYTLPPSREEMTKNQVSLWCLVKGFYPSDIAVEWESNGQPENNYKTTPPVLDSDGSFFLYSKLTVDKSRWQQGNVFSCSVMHEALHNHYTQKSLSLSPGKGSGGGGSGGGGSGGGGSGGGGSGGGGSGGGGSGGGGSNGDHCPLGPGRCCRLHTVRASLEDLGWADWVLSPREVQVTMCIGACPSQFRAANMHAQIKTRLHRLKPDTVPAPCCVPASYNPMVLIQKTDTGVSLQTYDDLLAKDCHCI
chain 2: B1 chain 2
  EC50 (nM), SRE-luciferase reporter (RLU): 9.3 nM
  Emax (%), SRE-luciferase reporter (RLU), relative to FM9-6+Fc_hole: 95.6%
